# Experimental data as given in patent US10407662B2, “Method of culturing pluripotent stem cell, and polypeptide to be used therefor” (FUJIFILM Corporation, priority 2012, dated 2019).
# B1: RCP-1: recombinant polypeptide, Met + human vitronectin (SEQ ID NO:3) positions 1-55, 269-459 (protein)
# chain: MDQESCKGRCTEGFNVDKKCQCDELCSYYQSCCTDYTAECKPQVTRGDVFTMPEDEPSQEECEGSSLSAVFEHFAMMQRDSWEDIFELLFWGRTSAGTRQPQFISRDWHGVPGQVDAAMAGRIYISGMAPRPSLAKKQRFRHRNRKGYRSQRGHSRGRNQNSRRPSRATWLSLFSSEESNLGANNYDDYRMDWLVPATCEPIQSVFFFSGDKYYRVNLRTRRVDTVDPPYPRSIAQYWLGCPAPGHL
# modifications: Synthetic Peptide RCP-1
# B2: RCP-15: comparative recombinant polypeptide, GPLG + human vitronectin positions 56-459 (protein)
# chain: GPLGYTVYDDGEEKNNATVHEQVGGPSLTSDLQAQSKGNPEQTPVLKPEEEAPAPEVGASKPEGIDSRPETLHPGRPQPPAEEELCSGKPFDAFTDLKNGSLFAFRGQYCYELDEKAVRPGYPKLIRDVWGIEGPIDAAFTRINCQGKTYLFKGSQYWRFEDGVLDPDYPRNISDGFDGIPDNVDAALALPAHSYSGRERVYFFKGKQYWEYQFQHQPSQEECEGSSLSAVFEHFAMMQRDSWEDIFELLFWGRTSAGTRQPQFISRDWHGVPGQVDAAMAGRIYISGMAPRPSLAKKQRFRHRNRKGYRSQRGHSRGRNQNSRRPSRATWLSLFSSEESNLGANNYDDYRMDWLVPATCEPIQSVFFFSGDKYYRVNLRTRRVDTVDPPYPRSIAQYWLGCPAPGHL
# modifications: Synthetic Peptide RCP-15
# B3: RCP-16: comparative recombinant polypeptide, GPLG + human vitronectin positions 269-459 (protein)
# chain: GPLGPSQEECEGSSLSAVFEHFAMMQRDSWEDIFELLFWGRTSAGTRQPQFISRDWHGVPGQVDAAMAGRIYISGMAPRPSLAKKQRFRHRNRKGYRSQRGHSRGRNQNSRRPSRATWLSLFSSEESNLGANNYDDYRMDWLVPATCEPIQSVFFFSGDKYYRVNLRTRRVDTVDPPYPRSIAQYWLGCPAPGHL
# modifications: Synthetic Peptide RCP-16
# B4: RCP-13: comparative recombinant polypeptide, GPLG + human vitronectin positions 1-55, 56-129 (protein)
# chain: GPLGDQESCKGRCTEGFNVDKKCQCDELCSYYQSCCTDYTAECKPQVTRGDVFTMPEDEYTVYDDGEEKNNATVHEQVGGPSLTSDLQAQSKGNPEQTPVLKPEEEAPAPEVGASKPEGIDSRPETLHPGRPQP
# modifications: Synthetic Peptide RCP-13
# B5: RCP-9: recombinant polypeptide, Met + human vitronectin positions 1-55, 269-373, 374-389, C274S (protein)
# chain: MDQESCKGRCTEGFNVDKKCQCDELCSYYQSCCTDYTAECKPQVTRGDVFTMPEDESQEESEGSSLSAVFEHFAMMQRDSWEDIFELLFWGRTSAGTRQPQFISRDWHGVPGQVDAAMAGRIYISGMAPRPSLAKKQRFRHRNRKGYRSQRGHSRGRNQNSRRPSRATWLSLFSSE
# modifications: Synthetic Peptide RCP-9
# notes: recombinant polypeptide, Met + human vitronectin positions 1-55, 269-373, 374-389, C274S
# B6: RCP-10: recombinant polypeptide, Met + human vitronectin positions 1-55, 269-373, 374-399, C274S (protein)
# chain: MDQESCKGRCTEGFNVDKKCQCDELCSYYQSCCTDYTAECKPQVTRGDVFTMPEDESQEESEGSSLSAVFEHFAMMQRDSWEDIFELLFWGRTSAGTRQPQFISRDWHGVPGQVDAAMAGRIYISGMAPRPSLAKKQRFRHRNRKGYRSQRGHSRGRNQNSRRPSRATWLSLFSSEESNLGANNYD
# modifications: Synthetic Peptide RCP-10
# notes: recombinant polypeptide, Met + human vitronectin positions 1-55, 269-373, 374-399, C274S
# Columns and labels:
# [1] = Evaluation of adsorptivity to culture plate (OPA fluorescence); format: physicochemical; conditions: FIG. 1; for adsorptivity to a plate: 0 to 200 pmol/cm^2, 37° C. 2 hours, washed with PBS twice
# Method: Each polypeptide obtained by the above-described method was diluted with a predetermined buffer so as to be added to wells at a predetermined final concentration of from 0 to 200 pmol/cm^2, and the resultant was aliquoted in 64 μL to a 96-well plate made of polystyrene and treated with plasma (Tissue Culture-Treated, Falcon). Each polypeptide was adsorbed to the plate by incubation at 37° C. for 2 hours, and was thereafter washed with PBS twice, to obtain a surface coated with each of the polypeptides of from RCP-1 to RCP-16.
# To surfaces coated with RCP-1, and from RCP-11 to RCP-16 among the polypeptide-coated surfaces obtained as described above, 64 μL of each of boric acid buffer and 1 N NaOH was applied, and incubated at 80° C. and a humidity of 100% for 24 hours. After air-cooling, 75 μL of boric acid buffer was added to each well, and 50 μL of reaction liquid in which an OPA (o-phthalaldehyde: Wako Pure Chemical Industries, Ltd.)/methanol solution (160 mg/ml) and an NAC (N-acetyl-L-cysteine: Wako Pure Chemical industries, Ltd.)/boric acid buffer solution (2 mg/ml) were mixed at 1:100 (mass ratio) was further added. After incubation at 40° C. for 30 minutes, the fluorescence intensity thereof was measured (excitation of 355 nm/fluorescence of 486 nm) using an ENVISION MULTI-LABEL COUNTER (PerkinElmer Inc.). A calibration curve was separately made from each polypeptide solution, to calculate an amount of adsorption. In FIG. 1, a black rhombus, a black tetragon, a black triangle, a black circle, a white rhombus, a white tetragon, and a white triangle represent RCP-1, RCP-11, RCP-12, RCP-13, RCP-14, RCP-15, and RCP-16, respectively.
# [2] = test system: human iPS cells; experiment: Cell Adhesiveness Evaluation 2 (synthetic peptide inhibition of cell adhesion to natural vitronectin); format: cell-based; conditions: 100 μM synthetic peptide
# Method: Polypeptides listed in Table 7 were synthesized by Emoc solid phase synthesis. A surface to which natural vitronectin was adsorbed at a concentration of 130 pmol/m^2, and thereafter, a cell suspension to which 100 μM of the above-described synthetic peptide was added was seeded at a rate of 30,000 cells/well. The number of adherent cells after 24 h post seeding was calculated by the same technique as in <Cell Adhesiveness Evaluation 1>.
# [3] = test system: human iPS cells; experiment: Proliferation Evaluation of iPS cells on polypeptide-coated plate; format: cell-based; conditions: for The Number (%) of Cells after 3 Days: 5000 cells/well
# Method: The iPS cells collected in the same manner as in <Cell Adhesiveness Evaluation 1>described above were seeded on a 96-well plate, to which RCP-1, RCP-11, and the natural human vitronectin were adsorbed, at a rate of 250 cells/well, and were cultured in a 5% CO2 incubator at 37° C. for 8 days. The number of adherent cells after each lapse of time was measured by the same method as in <Cell Adhesiveness Evaluation 1> described above, to obtain proliferation curves, The proliferation curves were indicated in FIG. 2. In FIG. 2, a black rhombus represents an example in which RCP-1 was used, while a black tetragon represents an example in which RCP-11 was used.
# Similarly, each of samples from […] was prepared so as to have an addition concentration listed in Table 8 with each of from RCP-1 to RCP-10, and RCP-17, and Human Recombinant Laminin-511 as a reference, was seeded on a 96-well plate, to which each polypeptide was adsorbed, at a rate of 5000 cells/well in the same manner as in<Cell Adhesiveness Evaluation 1> described above, and was cultured in a CO2 incubator at 37° C. for 3 days. The number of cells after the 3 days was measured by the same method as in <Cell Adhesiveness Evaluation 1> described above.
# [4] = test system: human iPS cells; experiment: Cell Adhesiveness Evaluation 3 (RCP-1 addition amount series); format: cell-based; conditions: adding not less than 125 pmol/cm^2
# Method: Cell adhesiveness was evaluated in the same manner as in <Cell Adhesiveness Evaluation 1> except that RCP-1 was adjusted with PBS to have a concentration of from 125 pmol/cm^2 to 1000 pmol/cm^2 to be used. In Table 9, cell adhesion rates were relative values in a case in which a cell adhesion rate to a cultivation container to which natural vitronectin was adsorbed at a concentration of 130 pmol/cm^2 was regarded as 100. n=3.
# [5] = test system: human iPS cells; experiment: Evaluation of Maintenance of Undifferentiation (colony form, NANOG staining); format: cell-based
# Method: iPS cells collected in the same manner as in <Cell Adhesiveness Evaluation 1> described above were suspended in TESR2. Induced pluripotent stem cells (iPS cells) were seeded on a 6-well plate (Tissue Culture-Treated, Falcon) to which each of the sample 1, the sample 2, the sample 5, the sample 6, and the sample 7 used in <Cell Adhesiveness Evaluation 1> described above was adsorbed in the same manner as in <Cell Adhesiveness Evaluation 1>, and were cultured in a CO2 incubator at 37° C. The culture medium was replaced by a fresh culture medium every day except the next day after the seeding. Subculture was performed by the same method as mentioned above every six days.
# The cells were cultured under these conditions for 1 month, thereafter immobilized with 4% paraformaldehyde, and made to have membrane permeability enhanced with 1% Triton-X/PBS. Blocking treatment was performed with an Image IT Signal Enhancer (Invitrogen), followed by adding an anti-human NANOG antibody (AF1997, R&D Systems, Inc), ALEXA FLUOR 555-CONJUGATE rabbit anti-goat IgG antibody (Invitrogen), and DAPI (Dojindo Laboratories), by performing labeling, and by photographing the cells with a fluorescence microscope.
# In each of FIG. 3 and FIG. 4, “A”, “B”, “C” “D”, and “E” show iPS cells cultured on RCP-1, iPS cells cultured on RCP-11, iPS cells cultured on the natural human vitronectin, iPS cells cultured on rinaminin-5, and iPS cells cultured on rLaminin-511, respectively. Scale bar: 100 μm. In FIG. 3, overall colony images are shown in the left column, while magnified images are shown in the right column; and in FIG. 4, DAPI-stained images are shown in the left column while anti-NANOG antibody-stained images are shown in the right column. Scale bars in FIGS. 3 and 4: 200 μm.
# [6] = Presence or absence of aggregation after dialysis; format: physicochemical; conditions: after stepwise dialysis removing urea
# Method: For from RCP-1 to RCP-10, and RCP-17, each polypeptide solution after the purification was dialyzed using a SLIDE-A-LIZER (3.5K MWCO). A dialysis external liquid was based on a dialysis buffer (PBS, 1.5 M NaCl, 0.5 M L-arginine, 1 mM EDTA, pH 7.4), and urea was removed by stepwise dialysis. The concentration of an end dialysis product was calculated at an absorbance of 280 nm using a NANODROP (Thremo Fisher Scientific Inc.).
# In addition, the presence or absence of aggregation was evaluated by G, A, and B below.
# G: Formation of an aggregate is not observed.
# A: Formation of particles having a particle diameter of around 100 nm is observed.
# B: Formation of visible aggregation with a particle diameter of 1 mm or more is observed.
molecule,measurement,setting,value
"RCP-14: comparative recombinant polypeptide, GPLG + human vitronectin positions 1-55 (GPLGDQESCKGRCTEGFNVDKKCQCDELCSYYQSCCTDYTAECKPQVTRGDVFTMPEDE; Synthetic Peptide RCP-14) [reference compound]",adsorption amount relative to that of the polypeptide containing SEQ ID NO:2,[1],¼
same,adsorptivity to a plate,[1],inadequate as an adsorbent to a culture plate
TAECKPQVTRGDVFTMPEDE [Peptide-6],inhibition of cell adhesion to natural vitronectin (in words),[2],significantly inhibited
TAECKPQVTRGEVGTMPEDE (TAECKPQVTRGEVFTMPEDE) [Peptide-8],inhibition of cell adhesion to natural vitronectin (in words),[2],adhesion inhibition did not occur
B1,adsorptivity to a plate,[1],"favorable adsorptivity to a plate, equivalent to that of RCP-11"
same,cell proliferation property (in words),[3]; FIG. 2 and Table 8,higher cell proliferation property than that of RCP-11
same,The Number (%) of Cells after 3 Days,[3]; addition amount 80 μg/cm^2,100.0%
same,adhesiveness of iPS cells (in words),[4],cell adhesion rate equivalent to that of natural vitronectin
same,form of iPS cell colonies,"[5]; FIG. 3, TESR2, subculture every six days",homogeneous colony and a form characteristic for undifferentiated cells having a high nucleus occupying rate
same,NANOG expression (immunostaining),"[5]; FIG. 4, cultured for 1 month",strongly expressed NANOG in an overall colony
same,maintenance of undifferentiated state,[5]; cultured for 1 month,undifferentiated state was favorably maintained
B2,adsorptivity to a plate,[1],"favorable adsorptivity to a plate, equivalent to that of RCP-11"
B3,adsorptivity to a plate,[1],"favorable adsorptivity to a plate, equivalent to that of RCP-11"
B4,adsorption amount relative to that of the polypeptide containing SEQ ID NO:2,[1],¼
same,adsorptivity to a plate,[1],inadequate as an adsorbent to a culture plate
B5,Aggregation,[6],B (Formation of visible aggregation with a particle diameter of 1 mm or more is observed.)
same,The Number (%) of Cells after 3 Days,[3]; addition amount 20 μg/cm^2,105.8%
B6,Aggregation,[6],B (Formation of visible aggregation with a particle diameter of 1 mm or more is observed.)
same,The Number (%) of Cells after 3 Days,[3]; addition amount 20 μg/cm^2,101.9%
